This assay deals with T1, human CRH receptor type 2 (human, UniProt Q13324 1-411).
T1 sequence (looked up): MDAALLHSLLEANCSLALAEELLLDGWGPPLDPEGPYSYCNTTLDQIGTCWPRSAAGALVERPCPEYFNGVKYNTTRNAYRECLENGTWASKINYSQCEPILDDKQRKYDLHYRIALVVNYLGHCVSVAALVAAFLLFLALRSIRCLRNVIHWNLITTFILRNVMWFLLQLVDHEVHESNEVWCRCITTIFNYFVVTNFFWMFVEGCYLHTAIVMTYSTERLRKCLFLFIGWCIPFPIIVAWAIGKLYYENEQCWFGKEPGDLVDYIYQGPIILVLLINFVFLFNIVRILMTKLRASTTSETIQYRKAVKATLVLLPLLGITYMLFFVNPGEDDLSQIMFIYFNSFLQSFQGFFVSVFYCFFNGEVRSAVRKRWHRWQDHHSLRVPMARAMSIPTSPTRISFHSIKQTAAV
In words: cell-based or functional assay.

No end group written: not given here.

In the case of TKFTLSLDVPTNIMNLLFCIAKAKNLRAQAAANAHLMAQI-NH2 [Cys-variant CRHR2 peptide agonist, SEQ ID NO: 20], the “Log DR against h-SCP, cAMP” value worked out at 0.52 log10 ratio and the “pA50, cAMP” value is 9 -log M.

For the molecule TKFTLSLDVPTNIMNLLFNIAKCKNLRAQAAANAHLMAQI-NH2 [Cys-variant CRHR2 peptide agonist, SEQ ID NO: 24], the “Log DR against h-SCP, cAMP” value worked out at 0.74 log10 ratio and the “pA50, cAMP” value is 8.94 -log M.

Take TKFTLSLDVPTNIMNLLFNICKAKNLRAQAAANAHLMAQI-NH2 [Cys-variant CRHR2 peptide agonist, SEQ ID NO: 22]: the “Log DR against h-SCP, cAMP” value amounted to 0.52 log10 ratio and the “pA50, cAMP” value is 9.17 -log M.

Take TKFTLSLDVPTNIMNLLFNIAKAKCLRAQAAANAHLMAQI-NH2 [Cys-variant CRHR2 peptide agonist, SEQ ID NO: 26]: the “Log DR against h-SCP, cAMP” value worked out at 0.08 log10 ratio and the “pA50, cAMP” value was 9.44 -log M.

Take TKFTLSLDVPTNCMNLLFNIAKAKNLRAQAAANAHLMAQI-NH2 [Cys-variant CRHR2 peptide agonist, SEQ ID NO: 14]: the “Log DR against h-SCP, cAMP” value is over 2 log10 ratio and the “pA50, cAMP” value was ~7.34 -log M.

Consider TKFTLSLDVPTNIMNLCFNIAKAKNLRAQAAANAHLMAQI-NH2 [Cys-variant CRHR2 peptide agonist, SEQ ID NO: 18], for which the “Log DR against h-SCP, cAMP” value was 1.11 log10 ratio and the “pA50, cAMP” value was 8.41 -log M.

With TKFTLSLDVPTNIMNLLFNIAKACNLRAQAAANAHLMAQI-NH2 [Cys-variant CRHR2 peptide agonist, SEQ ID NO: 25], the “Log DR against h-SCP, cAMP” value turned out to be 0.35 log10 ratio and the “pA50, cAMP” value is 9.17 -log M.

For TKFTLSLDVPTNIMNLLFNIAKAKNCRAQAAANAHLMAQI-NH2 [Cys-variant CRHR2 peptide agonist, SEQ ID NO: 27], the “Log DR against h-SCP, cAMP” value came out at 0.76 log10 ratio and the “pA50, cAMP” value is 8.76 -log M.

Take TKFTLSLDVPTNICNLLFNIAKAKNLRAQAAANAHLMAQI-NH2 [Cys-variant CRHR2 peptide agonist, SEQ ID NO: 15]: the “Log DR against h-SCP, cAMP” value was 0.9 log10 ratio and the “pA50, cAMP” value is 8.68 -log M.

Regarding TKFTLSLDVPTNIMCLLFNIAKAKNLRAQAAANAHLMAQI-NH2 [Cys-variant CRHR2 peptide agonist, SEQ ID NO: 16], the “Log DR against h-SCP, cAMP” value was found to be 0.76 log10 ratio and the “pA50, cAMP” value was 8.93 -log M.

With TKFTLSLDVPTNIMNLLFNCAKAKNLRAQAAANAHLMAQI-NH2 [Cys-variant CRHR2 peptide agonist, SEQ ID NO: 21], the “Log DR against h-SCP, cAMP” value is 0.77 log10 ratio and the “pA50, cAMP” value is 8.75 -log M.

Turning to TKFTLSLDVPTNIMNCLFNIAKAKNLRAQAAANAHLMAQI-NH2 [Cys-variant CRHR2 peptide agonist, SEQ ID NO: 17], the “Log DR against h-SCP, cAMP” value was 0.02 log10 ratio and the “pA50, cAMP” value is 9.5 -log M.

Turning to TKFTLSLDVPTCIMNLLFNIAKAKNLRAQAAANAHLMAQI-NH2 [Cys-variant CRHR2 peptide agonist, SEQ ID NO: 13], the “Log DR against h-SCP, cAMP” value was -0.01 log10 ratio and the “pA50, cAMP” value is 9.59 -log M.

As to TKFTLSLDVPTCIMNLLFNIAKAKNLRAQAAANAHLMAQI (NES-PEG (about 20 kDa) on Cys 12; C-terminal amide) [Pegylated Cys-variant CRHR2 peptide agonist (NES linker, PEG about 20 kDa), SEQ ID NO: 66], the “Log DR against h-SCP, cAMP” value is 1.26 log10 ratio and the “pA50, cAMP” value is 8.31 -log M.

Regarding TKFTLSLDVPTNIMNLLFNICKAKNLRAQAAANAHLMAQI (NES-PEG (about 20 kDa) on Cys 21; C-terminal amide) [Pegylated Cys-variant CRHR2 peptide agonist (NES linker, PEG about 20 kDa), SEQ ID NO: 75], the “Log DR against h-SCP, cAMP” value is 1.3 log10 ratio and the “pA50, cAMP” value was 8.24 -log M.

In the case of TKFTLSLDVPTNIMNLLFNIAKAKNCRAQAAANAHLMAQI (NES-PEG (about 20 kDa) on Cys 26; C-terminal amide) [Pegylated Cys-variant CRHR2 peptide agonist (NES linker, PEG about 20 kDa), SEQ ID NO: 80], the “Log DR against h-SCP, cAMP” value was 1.75 log10 ratio and the “pA50, cAMP” value is 7.6 -log M.

Turning to TKFTLSLDVPTNCMNLLFNIAKAKNLRAQAAANAHLMAQI (NES-PEG (about 20 kDa) on Cys 13; C-terminal amide) [Pegylated Cys-variant CRHR2 peptide agonist (NES linker, PEG about 20 kDa), SEQ ID NO: 67], the “Log DR against h-SCP, cAMP” value was over 3 log10 ratio and the “pA50, cAMP” value is ~6.35 -log M.

As to TKFTLSLDVPTNIMNLLCNIAKAKNLRAQAAANAHLMAQI (NES-PEG (about 20 kDa) on Cys 18; C-terminal amide) [Pegylated Cys-variant CRHR2 peptide agonist (NES linker, PEG about 20 kDa), SEQ ID NO: 72], the “Log DR against h-SCP, cAMP” value is 1.5 log10 ratio and the “pA50, cAMP” value is 8.04 -log M.

Regarding TKFTLSLDVPTNICNLLFNIAKAKNLRAQAAANAHLMAQI (NES-PEG (about 20 kDa) on Cys 14; C-terminal amide) [Pegylated Cys-variant CRHR2 peptide agonist (NES linker, PEG about 20 kDa), SEQ ID NO: 68], the “Log DR against h-SCP, cAMP” value was about 2.61 log10 ratio and the “pA50, cAMP” value is ~6.96 -log M.

For the molecule TKFTLSLDVPTNIMNLLFNIAKAKCLRAQAAANAHLMAQI (NES-PEG (about 20 kDa) on Cys 25; C-terminal amide) [Pegylated Cys-variant CRHR2 peptide agonist (NES linker, PEG about 20 kDa), SEQ ID NO: 79], the “Log DR against h-SCP, cAMP” value was determined as 1.11 log10 ratio and the “pA50, cAMP” value was 8.5 -log M.

On to TKFTLSLDVPTNIMNLLFCIAKAKNLRAQAAANAHLMAQI (NES-PEG (about 20 kDa) on Cys 19; C-terminal amide) [Pegylated Cys-variant CRHR2 peptide agonist (NES linker, PEG about 20 kDa), SEQ ID NO: 73], for which the “Log DR against h-SCP, cAMP” value is 1.11 log10 ratio and the “pA50, cAMP” value is 8.29 -log M.

As to TKFTLSLDVPTNIMNLLFNIAKACNLRAQAAANAHLMAQI (NES-PEG (about 20 kDa) on Cys 24; C-terminal amide) [Pegylated Cys-variant CRHR2 peptide agonist (NES linker, PEG about 20 kDa), SEQ ID NO: 78], the “Log DR against h-SCP, cAMP” value was about 1.52 log10 ratio and the “pA50, cAMP” value was ~7.89 -log M.

In the case of TKFTLSLDVPTNIMNLLFNIACAKNLRAQAAANAHLMAQI (NES-PEG (about 20 kDa) on Cys 22; C-terminal amide) [Pegylated Cys-variant CRHR2 peptide agonist (NES linker, PEG about 20 kDa), SEQ ID NO: 76], the “Log DR against h-SCP, cAMP” value is 2.7 log10 ratio and the “pA50, cAMP” value was 6.84 -log M.

Turning to TKFTLSLDVPTNIMNCLFNIAKAKNLRAQAAANAHLMAQI (NES-PEG (about 20 kDa) on Cys 16; C-terminal amide) [Pegylated Cys-variant CRHR2 peptide agonist (NES linker, PEG about 20 kDa), SEQ ID NO: 70], the “Log DR against h-SCP, cAMP” value is about 2.07 log10 ratio and the “pA50, cAMP” value is ~7.34 -log M.

Take TKFTLSLDVPTNIMCLLFNIAKAKNLRAQAAANAHLMAQI (NES-PEG (about 20 kDa) on Cys 15; C-terminal amide) [Pegylated Cys-variant CRHR2 peptide agonist (NES linker, PEG about 20 kDa), SEQ ID NO: 69]: the “Log DR against h-SCP, cAMP” value turned out to be 2.09 log10 ratio and the “pA50, cAMP” value is 7.45 -log M.

On to TKFTLSLDVPTNIMNLLFNCAKAKNLRAQAAANAHLMAQI (NES-PEG (about 20 kDa) on Cys 20; C-terminal amide) [Pegylated Cys-variant CRHR2 peptide agonist (NES linker, PEG about 20 kDa), SEQ ID NO: 74], for which the “Log DR against h-SCP, cAMP” value is about 2.28 log10 ratio and the “pA50, cAMP” value is ~7.33 -log M.

Consider TKFTLSLDVPTNIMNLLFNIAKCKNLRAQAAANAHLMAQI (NES-PEG (about 20 kDa) on Cys 23; C-terminal amide) [Pegylated Cys-variant CRHR2 peptide agonist (NES linker, PEG about 20 kDa), SEQ ID NO: 77], for which the “Log DR against h-SCP, cAMP” value worked out at 1.27 log10 ratio and the “pA50, cAMP” value is 8.27 -log M.

For the molecule TKFTLSLDVPTNIMNLCFNIAKAKNLRAQAAANAHLMAQI (NES-PEG (about 20 kDa) on Cys 17; C-terminal amide) [Pegylated Cys-variant CRHR2 peptide agonist (NES linker, PEG about 20 kDa), SEQ ID NO: 71], the “Log DR against h-SCP, cAMP” value was about 2.26 log10 ratio and the “pA50, cAMP” value is ~7.35 -log M.

On to TKFTLSLDVPTNIMNLLFNIACAKNLRAQAAANAHLMAQI-NH2 [Cys-variant CRHR2 peptide agonist, SEQ ID NO: 23], for which the “Log DR against h-SCP, cAMP” value came to 1.13 log10 ratio and the “pA50, cAMP” value was 8.55 -log M.

TKFTLSLDVPTNIMNLLCNIAKAKNLRAQAAANAHLMAQI-NH2 [Cys-variant CRHR2 peptide agonist, SEQ ID NO: 19]: the “Log DR against h-SCP, cAMP” value came to 1.67 log10 ratio and the “pA50, cAMP” value is 8.01 -log M.

The values are drawn from patent US20100130424A1 (Janssen / Centocor, published 2010).
